Data from US11859229B2, “Polyvinyl alcohol-degrading enzyme and process for producing the same” (Hayashibara Co., Ltd., priority 2017, dated 2024).

Columns and labels:
Assay type in all cases: biochemical
[1] = Optimum temperature and optimum pH of PVA-oxidizing activity
Experimental: To 0.5 mL of a substrate solution prepared by dissolving PVA (Reagent grade polyvinyl alcohol, polymerization degree: 2,000, Nacalai Tesque Inc., Kyoto, Japan) into 100 mM sodium phosphate buffer (pH 7.0) to give a concentration of 2% (w/v), 15 µL of 2% (w/v) of sodium azide solution was added, and then 0.5 mL of an enzyme solution is further added and reacted with shaking at 27° C. for 60 min. After the 60 min-reaction, the reaction was stopped by mixing 0.32 mL of the reaction mixture to 0.8 mL of a titanium reagent, and the yellow color, produced by reacting hydrogen peroxide formed by the enzyme reaction and the titanium reagent, was measured by measuring the absorbance at 410 nm (A410) as an index. Separately, the enzyme solution was added to the substrate solution, and the resulting mixture is immediately mixed with the titanium reagent. The resulting mixture was similarly measured its color and the value was used as the value at the reaction zero minutes. Then, the amount of the formed hydrogen peroxide is determined and the PVA-oxidizing activity is calculated based on the following formula. It is known that the absorbance at 410 nm (A410) increases by “1” when 3.65 […]mole/mL of hydrogen peroxide is formed. Therefore, in the following Formula 1, the coefficient of “3.65” has been multiplied. […]

[2] = PVA-degrading (viscosity-reducing) activity; settings: at each purification step
Experimental: While, activity as a PVA-degrading enzyme can be measured, for example, by measuring the viscosity reduction of a PVA solution, caused by the degradation of PVA, as an index using the following method.
To 0.5 mL of a substrate solution prepared by dissolving PVA (Reagent grade polyvinyl alcohol, polymerization degree: 2,000, Nacalai Tesque Inc., Kyoto, Japan) into 100 mM sodium phosphate buffer (pH 7.0) to give a concentration of 2% (w/v), 15 µL of 2% (w/v) of sodium azide solution was added, and then 0.5 mL of an enzyme solution is further added and reacted with shaking at 27° C. for 60 min. After the reaction, 0.6 mL of the reaction mixture was withdrawn and its viscosity was measured using a Cone plate-type viscometer (“DV-II+Pro”, Brookfield Co., Ltd.) at 30° C. Separately, the enzyme solution was added to the substrate solution and the viscosity was measured immediately, and the viscosity was used as that at zero-min reaction. The PVA-degrading activity was calculated based on the following formula. One unit of the PVA-degrading activity was defined as the amount of enzyme that causes a 10%-reduction of relative viscosity per min under the above conditions. […]

[3] = Detection of β-diketone hydrolyzing activity (acetone from 2,4-pentanedione by gas chromatography); design: key: Yes: Acetone, a product by the hydrolysis, was qualitatively detected; settings: qualitative
Excerpt: As shown in the above (2), the PVA-degrading enzyme of the present invention has an activity of hydrolyzing […]-diketone, i.e., […]-diketone-hydrolyzing activity. Enzymes having β-diketone-hydrolyzing activity can hydrolyze an oxidized PVA having a […]-diketone structure (i.e., oxidized PVA). Beta-diketone-hydrolyzing activity can be detected by examining the activity of hydrolyzing 2, 4-pentanedione which is a model compound of oxidized PVA having a […]-diketone structure. Acetone and acetic acid are formed when a PVA-degrading enzyme hydrolyzes 2,4-pentanedione. Therefore, for example, […]-diketone-hydrolyzing activity can be detected by the following method using 2,4-pentanedione as a substrate.
2,4-Pentanedione (Reagent grade, commercialized by Wako Pure Chemical Industries Co., Ltd., Osaka, Japan) was added to 50 mM sodium phosphate buffer (pH 7.0) to give a concentration of 0.2% (w/v) to make into a substrate solution. To 1 mL of the substrate solution, 0.2 mL of enzyme solution and 0.8 mL of 50 mM sodium phosphate buffer (pH 7.0) were added and then the mixture was shaken at 27° C. for 3 hours for the reaction. After the reaction, 2 mL of the reaction mixture was withdrawn and put in a glass vial, and then the vial was sealed and heated at 95° C. for 40 min. […]

[4] = Assay for PVA-oxidizing activity (hydrogen peroxide formation, titanium reagent, A410)
Experimental: As shown in the above (1), the PVA-degrading enzyme of the present invention has an PVA-oxidizing activity, i.e., an activity of catalyzing the reaction of oxidizing PVA as substrate and forming hydrogen peroxide. For example, the PVA-oxidizing activity can be measured by the following method.
To 0.5 mL of a substrate solution prepared by dissolving PVA (Reagent grade polyvinyl alcohol, polymerization degree: 2,000, Nacalai Tesque Inc., Kyoto, Japan) into 100 mM sodium phosphate buffer (pH 7.0) to give a concentration of 2% (w/v), 15 µL of 2% (w/v) of sodium azide solution was added, and then 0.5 mL of an enzyme solution is further added and reacted with shaking at 27° C. for 60 min. After the 60 min-reaction, the reaction was stopped by mixing 0.32 mL of the reaction mixture to 0.8 mL of a titanium reagent, and the yellow color, produced by reacting hydrogen peroxide formed by the enzyme reaction and the titanium reagent, was measured by measuring the absorbance at 410 nm (A410) as an index. Separately, the enzyme solution was added to the substrate solution, and the resulting mixture is immediately mixed with the titanium reagent. The resulting mixture was similarly measured its color and the value was used as the value at the reaction zero minutes. Then, the amount of the formed hydrogen peroxide is determined and the PVA-oxidizing activity is calculated based on the following formula. It is known that the absorbance at 410 nm (A410) increases by “1” when 3.65 […]mole/mL of hydrogen peroxide is formed. Therefore, in the following Formula 1, the coefficient of “3.65” has been multiplied. One unit of the PVA-oxidizing activity is defined as the amount of enzyme that forms 1 […]mole of hydrogen peroxide per min under the above conditions. Titanium reagent is prepared by diluting 5% titanium sulfate (IV) solution, commercialized by Nacalai Tesque Inc., Kyoto, Japan, 25-fold with 10% (w/w) sulfuric acid.

[5] = Thermal stability and pH stability (residual PVA-oxidizing activity)
Experimental: To 0.5 mL of a substrate solution prepared by dissolving PVA (Reagent grade polyvinyl alcohol, polymerization degree: 2,000, Nacalai Tesque Inc., Kyoto, Japan) into 100 mM sodium phosphate buffer (pH 7.0) to give a concentration of 2% (w/v), 15 µL of 2% (w/v) of sodium azide solution was added, and then 0.5 mL of an enzyme solution is further added and reacted with shaking at 27° C. for 60 min. After the 60 min-reaction, the reaction was stopped by mixing 0.32 mL of the reaction mixture to 0.8 mL of a titanium reagent, and the yellow color, produced by reacting hydrogen peroxide formed by the enzyme reaction and the titanium reagent, was measured by measuring the absorbance at 410 nm (A410) as an index. Separately, the enzyme solution was added to the substrate solution, and the resulting mixture is immediately mixed with the titanium reagent. The resulting mixture was similarly measured its color and the value was used as the value at the reaction zero minutes. Then, the amount of the formed hydrogen peroxide is determined and the PVA-oxidizing activity is calculated based on the following formula. It is known that the absorbance at 410 nm (A410) increases by “1” when 3.65 […]mole/mL of hydrogen peroxide is formed. […]
In the two purified preparations of the PVA-degrading enzyme, PVA-A was used for investigating thermal stability and pH stability using PVA-oxidizing activity as an index according to the assay method. Thermal stability was determined by the steps of incubating the enzyme solution (in 10 mM phosphate buffer, pH 7.0) at various temperature for 60 min, cooling in water, and then measuring the residual enzyme activity. pH Stability was determined by the steps of incubating the enzyme solution in 100 mM buffer with different pH at 4° C. for 24 hours, adjusting pH to 7.0, and then measuring the residual enzyme activity. […] In FIG. 6, symbols, “●”, “▪”, “▴” and “♦”, mean values measured by using acetate buffer, phosphate buffer, glycine-NaOH buffer, and potassium chloride-NaOH buffer, respectively, for pH control.

B1: PVA-B: purified PVA-degrading hybrid enzyme from Pseudomonas sp. VT1B strain, amino acid sequence of SEQ ID NO: 3 (protein, listed as Pseudomonas sp.)
chain: AENWPMFGKNYENSRATADTQLSTSNISSLNVVRRTADGGITGTPTVVDGVAYYSDFSGYVKAVRVNDGAVLWRVRPQTTMLSPSPFVTDDTVYVAGNNSYVYALNRLDGAVRWTTQIETSPNSRISSSPIVVDNILMIGTGSYQVFIPATPMFRGRVVFLNATTGAILPYSTNMCPEGLCGGGISVWSTAAVDVSTRTGYIGTGQAYRDPAGPYSDSLVAFDIDTGAIRWSQQFLANDVYQLGGVLRYDYDVGAAPNLFVADERRMVGVGGKDGTYRAFDRDTGAPIWTTPVGRGSPIGGVMQSTAYGDGRIYVTSNTSTIGGGRNDPVPATAEALALDAATGTPVWIRQLDAGGFGGVAYANGLMYASVWDGRMRVFNAANGNIVKEVQVSPSRGVYVAAPTDGFPNGSAGGPIVYGNRVLMGYGWTWVLNISGGLATMELVSGGGETQTVTLASNQDTYVQSGTPTTSYNANEFLLARLADAEGLTRASFLQFPLTAIPAGTITSARLRLYGRHDAPTGTGQPVSVWPGTFTTPWNGADVIYNNSDLVTGVNFYLTSPIANALIGITPQYYEWDVTGYVDSRRALGHATFGVAVDYGHLYRVTFNSADNAANRPELVVAVSTGGTSEPDPELPPGSMEGSCPAGFTPRAGVNQGFIHNGVARGFVLNVPANVSTPRPMFVSLTGSVESTNENLGPRGGAGALTNDGFLVIGPVRRCAGQDPNGSGTSVGGGTCNQPGTGGWNWNPWNEGRAFGAAGDQWKTAEGPDSEFLESVARCVAKRFPVDSKRMYLGGISSGGTLTNRALLFNSDFWAGGLPISGEWYVTRDDGTAYPGPDEFAARRQAVIDDPTKIFQGRVGPLPLRSTLDPMIVITVWGGTNDVWSCDGVTLCADYRPSTQVASNYFSAQPNVVHVACSSSHGHQWPTINRAAFNTWAATTLASHPKGTPASAFVLPPPPAGYTCRIGPYIDHYERACSVDGDGDIDRNDIAVITAARNQPASGPTDLRDVDRSGVIDVNDARACTLRCDRPNCAVQ
Q: Which “Optimum pH of PVA-oxidizing activity” value ([1]; 60 min-reaction at 27° C.) does the source give for B1 here?
A: The value was “almost the same”.

Q: And the “Optimum temperature of PVA-oxidizing activity” value ([1]; 60 min-reaction at pH 7.0)?
A: The value was “almost the same”.

Q: What about the “Total PVA-Degrading Activity (Viscosity-reducing Activity)” value [2] of the same molecule?
A: Its value is 8.4 U.

Q: What about the “2,4-Pentanedione-Degrading Activity” value [3] of the same molecule?
A: The value was “Yes*”.

Q: And the Specific activity ([4]; PVA-oxidizing activity per mg protein at each purification step)?
A: Its Specific activity is 1.9 U/mg.

Q: And the “Total Activity (PVA-oxidizing activity)” value ([4]; at each purification step, from 4 L culture supernatant)?
A: Its value is 3.3 U.

Q: And the “Thermal stability of PVA-oxidizing activity” value ([5]; 10 mM phosphate buffer, pH 7.0, 60 min)?
A: Its value is “almost the same”.

Q: What about the “pH stability of PVA-oxidizing activity” value ([5]; 100 mM buffer, 4° C. for 24 hours) of the same molecule?
A: Its value is “almost the same”.
